Reference: paper PMC10311867 (Biotechnology for Biofuels and Bioproducts, 2023)

Legend:
[1] = molecular target: T1, AmRha (Aspergillus mulundensis, UniProt A0A3D8R006); assay: residual activity on pNPR, […] nm; format: biochemical; settings: read-out: remaining enzyme activity at 5 mM
T1 construct: gene DSM5745_09107; full-length synthetic gene (2589 bp, 862 aa); native-like purification (ammonium sulphate, DEAE)
T1 sequence (A0A3D8R006 1-862): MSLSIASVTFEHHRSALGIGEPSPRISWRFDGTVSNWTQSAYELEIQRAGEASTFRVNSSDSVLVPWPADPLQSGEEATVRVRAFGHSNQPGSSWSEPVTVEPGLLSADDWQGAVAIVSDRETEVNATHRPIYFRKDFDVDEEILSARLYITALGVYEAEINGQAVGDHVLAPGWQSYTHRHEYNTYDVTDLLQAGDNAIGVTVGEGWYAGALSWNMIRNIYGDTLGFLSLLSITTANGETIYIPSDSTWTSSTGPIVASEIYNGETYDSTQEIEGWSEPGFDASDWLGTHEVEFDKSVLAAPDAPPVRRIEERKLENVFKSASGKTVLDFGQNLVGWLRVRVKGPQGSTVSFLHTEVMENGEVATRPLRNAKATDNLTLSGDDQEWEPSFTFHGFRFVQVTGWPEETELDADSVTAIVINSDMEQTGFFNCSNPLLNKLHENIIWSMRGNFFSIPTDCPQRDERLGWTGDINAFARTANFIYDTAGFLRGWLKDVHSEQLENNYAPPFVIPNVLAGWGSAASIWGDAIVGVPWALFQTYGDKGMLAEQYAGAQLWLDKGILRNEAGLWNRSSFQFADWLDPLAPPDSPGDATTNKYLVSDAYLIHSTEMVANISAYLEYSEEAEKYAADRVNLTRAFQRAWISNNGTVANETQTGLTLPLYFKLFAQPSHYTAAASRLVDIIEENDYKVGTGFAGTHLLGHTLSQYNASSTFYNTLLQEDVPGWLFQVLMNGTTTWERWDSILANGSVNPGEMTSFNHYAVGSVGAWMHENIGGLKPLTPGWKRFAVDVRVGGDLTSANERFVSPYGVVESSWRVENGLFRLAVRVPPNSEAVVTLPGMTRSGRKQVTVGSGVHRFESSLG

[2] = substrate: C[C@@H]1O[C@@H](Oc2ccc([N+](=O)[O-])cc2)[C@H](O)[C@H](O)[C@H]1O; assay: purified protein; format: biochemical, Aspergillus mulundensis; settings: pH 5.5, 65 °C, 50 mM sodium phosphate
[3] = substrate: COc1ccc(-c2oc3c(CC=C(C)C)c(O[C@@H]4O[C@H](CO)[C@@H](O)[C@H](O)[C@H]4O)cc(O)c3c(=O)c2O[C@@H]2O[C@@H](C)[C@H](O)[C@@H](O)[C@H]2O[C@@H]2O[C@@H](C)[C@H](O)[C@@H](O)[C@H]2O)cc1; assay: purified protein; settings: hydrolysis of terminal alpha-1,2-rhamnose to icariin; kinetic conditions not stated

remaining activity at 5000 µM [1] [%] | Molecule | Km [2] [mM] | kcat [2] [s⁻¹] | Km [3] [mM] | kcat [3] [s⁻¹]
49.7 | C[C@@H]1OC(O)[C@H](O)[C@H](O)[C@H]1O (stereo partly drawn) [L-rhamnose] | – | – | – | –
– | AmRha (Aspergillus mulundensis) (protein, full-length synthetic gene (2589 bp, 862 aa); native-like purification (ammonium sulphate, DEAE)) MSLSIASVTFEHHRSALGIGEPSPRISWRFDGTVSNWTQSAYELEIQRAGEASTFRVNSSDSVLVPWPADPLQSGEEATVRVRAFGHSNQPGSSWSEPVTVEPGLLSADDWQGAVAIVSDRETEVNATHRPIYFRKDFDVDEEILSARLYITALGVYEAEINGQAVGDHVLAPGWQSYTHRHEYNTYDVTDLLQAGDNAIGVTVGEGWYAGALSWNMIRNIYGDTLGFLSLLSITTANGETIYIPSDSTWTSSTGPIVASEIYNGETYDSTQEIEGWSEPGFDASDWLGTHEVEFDKSVLAAPDAPPVRRIEERKLENVFKSASGKTVLDFGQNLVGWLRVRVKGPQGSTVSFLHTEVMENGEVATRPLRNAKATDNLTLSGDDQEWEPSFTFHGFRFVQVTGWPEETELDADSVTAIVINSDMEQTGFFNCSNPLLNKLHENIIWSMRGNFFSIPTDCPQRDERLGWTGDINAFARTANFIYDTAGFLRGWLKDVHSEQLENNYAPPFVIPNVLAGWGSAASIWGDAIVGVPWALFQTYGDKGMLAEQYAGAQLWLDKGILRNEAGLWNRSSFQFADWLDPLAPPDSPGDATTNKYLVSDAYLIHSTEMVANISAYLEYSEEAEKYAADRVNLTRAFQRAWISNNGTVANETQTGLTLPLYFKLFAQPSHYTAAASRLVDIIEENDYKVGTGFAGTHLLGHTLSQYNASSTFYNTLLQEDVPGWLFQVLMNGTTTWERWDSILANGSVNPGEMTSFNHYAVGSVGAWMHENIGGLKPLTPGWKRFAVDVRVGGDLTSANERFVSPYGVVESSWRVENGLFRLAVRVPPNSEAVVTLPGMTRSGRKQVTVGSGVHRFESSLG | 0.30 | 900.34 | 6.96 | 37.11
